To fix the notation:
B3: serine hydroxymethyltransferase, cytosolic (SHMT1), as used in MST (enzyme, UniProt P34896 1-483, looked up)
chain: MTMPVNGAHKDADLWSSHDKMLAQPLKDSDVEVYNIIKKESNRQRVGLELIASENFASRAVLEALGSCLNNKYSEGYPGQRYYGGTEFIDELETLCQKRALQAYKLDPQCWGVNVQPYSGSPANFAVYTALVEPHGRIMGLDLPDGGHLTHGFMTDKKKISATSIFFESMPYKVNPDTGYINYDQLEENARLFHPKLIIAGTSCYSRNLEYARLRKIADENGAYLMADMAHISGLVAAGVVPSPFEHCHVVTTTTHKTLRGCRAGMIFYRKGVKSVDPKTGKEILYNLESLINSAVFPGLQGGPHNHAIAGVAVALKQAMTLEFKVYQHQVVANCRALSEALTELGYKIVTGGSDNHLILVDLRSKGTDGGRAEKVLEACSIACNKNTCPGDRSALRPSGLRLGTPALTSRGLLEKDFQKVAHFIHRGIELTLQIQSDTGVRATLKEFKERLAGDKYQAAVQALREEVESFASLFPLPGLPDF
modifications: fluorescently labeled in the SHMT-TS titration only; unlabeled titrant in the other MST experiments
notes: cytosolic serine hydroxymethyltransferase (SHMT1); Same preparation as m1; source: recombinant, overexpressed, purified (Ni-NTA, dialysis)
B4: serine hydroxymethyltransferase, cytosolic (SHMT1), His-tagged, immobilised in QCM-D (enzyme, UniProt P34896 1-483, looked up)
chain: MTMPVNGAHKDADLWSSHDKMLAQPLKDSDVEVYNIIKKESNRQRVGLELIASENFASRAVLEALGSCLNNKYSEGYPGQRYYGGTEFIDELETLCQKRALQAYKLDPQCWGVNVQPYSGSPANFAVYTALVEPHGRIMGLDLPDGGHLTHGFMTDKKKISATSIFFESMPYKVNPDTGYINYDQLEENARLFHPKLIIAGTSCYSRNLEYARLRKIADENGAYLMADMAHISGLVAAGVVPSPFEHCHVVTTTTHKTLRGCRAGMIFYRKGVKSVDPKTGKEILYNLESLINSAVFPGLQGGPHNHAIAGVAVALKQAMTLEFKVYQHQVVANCRALSEALTELGYKIVTGGSDNHLILVDLRSKGTDGGRAEKVLEACSIACNKNTCPGDRSALRPSGLRLGTPALTSRGLLEKDFQKVAHFIHRGIELTLQIQSDTGVRATLKEFKERLAGDKYQAAVQALREEVESFASLFPLPGLPDF
notes: cytosolic serine hydroxymethyltransferase (SHMT1); Purified and stored with 50 uM pyridoxal phosphate; Captured by its His tag on the QSX340 sensor; also called His-tagged SHMT; His-tagged SHMT1; source: recombinant, overexpressed, purified (Ni-NTA, dialysis)

What all share (details): both partners purified
The target in experiment [1] is B4. Nature of the experiment: QCM-D (quartz crystal microbalance with dissipation monitoring); two proteins: 5 uM His-tagged SHMT immobilised on His-tag capturing sensor QSX340; tagless ligand introduced (0.1-1.0 uM or 0.5-7.0 uM for TS, pTS or DHFR); 20 mM Tris-HCl pH 7.6, 100 mM (salt not given), 10 mM MgCl2, 0.05% Tween 20, 25 C, 200 ul/min; Langmuir isotherm fit.

Experiment [2] deals with B3. Nature of the experiment: MST; two proteins in solution, Premium capillaries: labeled DHFR with SHMT 157 uM-4.79 nM; labeled SHMT with TS 62.0 uM-1.9 nM; labeled pTS with SHMT 157 uM-4.79 nM; Kd model fit.
The target in experiment [3] is T1, labeled DHFR with a constant concentration of pTS (9.0 uM), MST tri-complex assay ( | human, UniProt P00374 1-187); P04818 1-313, fluorescently labeled (dye and site not stated) | phosphorylated in vitro by CK2alpha; residue not stated for this preparation (the introduction names serine 124 as the site of CK2-mediated …).
T1 construct: dihydrofolate reductase (DHFR); human thymidylate synthase (TS); A mixture at constant concentrations, not a purified complex; also called DHFR/pTS; source: purified recombinant proteins mixed: constant labeled DHFR and 9.0 uM pTS
Nature of the experiment: MST; tri-complex: constant labeled DHFR and TS or pTS (9.0 uM), SHMT titrated 157 uM-4.79 nM; Kd model fit.

Experiment [4] addresses T2, labeled DHFR with a constant concentration of TS (9.0 uM), MST tri-complex assay ( | human, UniProt P00374 1-187; P04818 1-313, fluorescently labeled (dye and site not stated)).
T2 construct: dihydrofolate reductase (DHFR); human thymidylate synthase (TS); A mixture at constant concentrations, not a purified complex; also called DHFR/TS; source: purified recombinant proteins mixed: constant labeled DHFR and 9.0 uM TS
The description is as above.

Experiment [5] has as its target T3, mixture of DHFR and pTS introduced together in the three-protein QCM-D assay ( | human, UniProt P00374 1-187; P04818 1-313, phosphorylated in vitro by CK2alpha; residue not stated for this preparation (the introduction names serine 124 as the site of CK2-mediated phosphorylation of human TS)).
T3 construct: dihydrofolate reductase (DHFR); human thymidylate synthase (TS); A mixture, not a purified preformed complex; only the DHFR concentration was varied; also called DHFR/pTS; fixed pTS and variable DHFR; source: purified recombinant proteins mixed: pTS fixed at 1.0 uM, DHFR 0.25-2.0 uM
Nature of the experiment: QCM-D (quartz crystal microbalance with dissipation monitoring); three proteins: 5 uM His-tagged SHMT1 immobilised on the sensor; mixture of fixed pTS (1.0 uM) and DHFR 0.25-2.0 uM introduced; 20 mM Tris-HCl pH 7.6, 100 mM (salt not given), 10 mM MgCl2, 0.05% Tween 20, 25 C, 200 ul/min; Langmuir isotherm fit.

T2 sequence (P04818 whole entry, one chain of several): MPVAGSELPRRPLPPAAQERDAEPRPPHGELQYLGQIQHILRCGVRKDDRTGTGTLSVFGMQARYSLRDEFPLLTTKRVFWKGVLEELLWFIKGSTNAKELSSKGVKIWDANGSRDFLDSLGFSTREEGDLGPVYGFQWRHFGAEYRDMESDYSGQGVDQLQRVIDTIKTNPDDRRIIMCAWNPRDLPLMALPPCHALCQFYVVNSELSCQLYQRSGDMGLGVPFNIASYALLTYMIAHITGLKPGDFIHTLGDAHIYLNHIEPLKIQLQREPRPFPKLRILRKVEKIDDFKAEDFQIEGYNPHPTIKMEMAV
T1 sequence (P04818 whole entry, one chain of several): as above
T3 sequence (P04818 whole entry, one chain of several): as above

B1: dihydrofolate reductase (DHFR), tagless ligand in QCM-D (enzyme, UniProt P00374 1-187, looked up)
chain: MVGSLNCIVAVSQNMGIGKNGDLPWPPLRNEFRYFQRMTTTSSVEGKQNLVIMGKKTWFSIPEKNRPLKGRINLVLSRELKEPPQGAHFLSRSLDDALKLTEQPELANKVDMVWIVGGSSVYKEAMNHPGHLKLFVTRIMQDFESDTFFPEIDLEKYKLLPEYPGVLSDVQEEKGIKYKFEVYEKND
notes: dihydrofolate reductase (DHFR); source: recombinant, overexpressed and purified as described previously (Antosiewicz et al., 2015; Skierka et al., 2019); His tag removed with Thrombin CleanCleave Kit
As to B1, the Kd in experiment [1] came out at 12.1 ± 7.86 µM.

B2: dihydrofolate reductase (DHFR), fluorescently labeled, as used in MST (enzyme, UniProt P00374 1-187, looked up)
chain: MVGSLNCIVAVSQNMGIGKNGDLPWPPLRNEFRYFQRMTTTSSVEGKQNLVIMGKKTWFSIPEKNRPLKGRINLVLSRELKEPPQGAHFLSRSLDDALKLTEQPELANKVDMVWIVGGSSVYKEAMNHPGHLKLFVTRIMQDFESDTFFPEIDLEKYKLLPEYPGVLSDVQEEKGIKYKFEVYEKND
modifications: fluorescently labeled (dye and site not stated)
notes: dihydrofolate reductase (DHFR); also called labeled DHFR; source: recombinant, overexpressed and purified as described previously (Antosiewicz et al., 2015; Skierka et al., 2019)
With B2, the Kd in experiment [2] was found to be 12.6 ± 0.66 µM.

As to B3, the Kd in experiment [3] was found to be 0.32 ± 0.05 µM; in experiment [4], 5.04 ± 0.5 µM.

On to B4, for which the Kd in experiment [5] came to 0.28 ± 0.23 µM.

The values are drawn from PMC8914513, “Inhibition of Protein Kinase CK2 Affects Thymidylate Synthesis Cycle Enzyme Level and Distribution in Human Cancer Cells” (Frontiers in Molecular Biosciences, 2022).
